According to the supplement of paper PMC12783771:
± gives the standard deviation of the averaged measurements.

B1: library; numbered along this chain (parent)
chain: MNIQIGELAKRTACPVVTIRFYEQEGLLPPPGRSRGNFRLYGEEHVERLQFIRHCRSLDMPLSDVRTLLSYRKRPDQDCGEVNMLLDEHIRQVESRIGALLELKHHLVELREACSGARPAQSCGILQGLSDCVCDTRGTTAHPSD

Legend:
[1] = variants of: B1; assay: sfGFP reporter fluorescence (15 h) (µM FITC); higher = higher leak; conditions: library round: Round 0; ligand: none
Outline: (§1)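 PCR-made linear PbrR templates (Echo-normalized to 5 nM) were expressed in BL21 Star (DE3) extract (PANOx-SP) with pPbrR-sfGFP reporter plasmid and 30 μg/mL GamS. Reactions were 1 μL, Echo-assembled, with 1 µM lead chloride, 30 µM zinc acetate or no metal, incubated 15 hr at 30 °C. Endpoint sfGFP fluorescence (485/528 nm, Synergy Neo2) was converted to µM FITC via standard curves in 50 mM sodium borate pH 8.5. Up to three biological replicates.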

[2] = variants of: B1; assay: sfGFP reporter fluorescence (15 h) (µM FITC); higher = stronger transcriptional activation; conditions: library round: Round 0
Outline: as §1

Row | Variant | sfGFP reporter fluorescence [1] | sfGFP reporter fluorescence ([2]; ligand: 1 µM Pb) | sfGFP reporter fluorescence ([2]; ligand: 30 µM Zn)
1 | C79H | 0.05919 ± 0.00026 | 0.0596 ± 0.00078 | 0.0559 ± 0.00078
2 | C79W | 0.0583 ± 0.0021 | 0.0588 ± 0.0013 | 0.0548 ± 0.0034
3 | S70A | 0.0678 ± 0.0052 | 0.072 ± 0.0054 | 0.281 ± 0.061
4 | Y71A | 0.05974 ± 0.00052 | 0.0575 | 0.22 ± 0.0036
5 | V65A | 0.0629 ± 0.0013 | 0.0678 ± 0.0052 | 0.153 ± 0.036
6 | T67A | 0.06047 ± 0.00052 | 0.0709 ± 0.0018 | 0.381 ± 0.063
7 | R66A | 0.0627 ± 0.0015 | 0.0751 ± 0.0047 | 0.616 ± 0.13
8 | L68M | 0.0902 ± 0.0021 | 0.2142 ± 0.0013 | 1.42 ± 0.044
9 | L68W | 0.0627 ± 0.0026 | 0.06157 ± 0.00052 | 0.111 ± 0.0018
10 | L68F | 0.07935 ± 0.00078 | 0.166 ± 0.0029 | 1.42 ± 0.11
11 | L68P | 0.0632 ± 0.0029 | 0.0583 ± 0.0015 | 0.0652 ± 0.0026
12 | L68E | 0.0623 ± 0.00052 | 0.05974 ± 0.00052 | 0.0652 ± 0.0015
13 | L68Y | 0.0634 | 0.0773 ± 0.0031 | 0.908 ± 0.05
14 | L68D | 0.0619 ± 0.001 | 0.061 ± 0.0013 | 0.0636 ± 0.0023
15 | L68V | 0.0603 ± 0.0018 | 0.0632 ± 0.0013 | 0.384 ± 0.035
16 | L68N | 0.0588 ± 0.0013 | 0.05992 ± 0.00026 | 0.0599 ± 0.0013
17 | L68H | 0.0623 ± 0.0026 | 0.0577 ± 0.0013 | 0.0795 ± 0.0015
18 | L68R | 0.06175 ± 0.00026 | 0.0579 ± 0.001 | 0.0596 ± 0.0029
19 | L68A | 0.0623 ± 0.001 | 0.0619 ± 0.0047 | 0.156 ± 0.0049
20 | L68K | 0.0608 ± 0.0021 | 0.0566 ± 0.0013 | 0.0638 ± 0.0036
21 | L68S | 0.061 ± 0.0023 | 0.05882 ± 0.00026 | 0.0636 ± 0.0039
22 | L68G | 0.06395 ± 0.00026 | 0.05827 ± 0.00052 | 0.0656 ± 0.00052
